Source: patent publication US20060039913A1 (Janssen / Centocor, published 2006)
Where “and” joins values, the source holds several entries; their conditions need not be identical. Equal entries are not always repeated.

Assays:
[1] = molecular target: chemokine receptor CCR2 on THP-1 cells (human) (UniProt P41597); assay: radioligand saturation binding on THP-1 cells, one-site binding hyperbola fit; mass concentration as fitted
[2] = molecular target: chemokine receptor CCR2 on THP-1 cells (human) (UniProt P41597); assay: radioligand saturation binding on THP-1 cells, one-site binding hyperbola fit; molar conversion with 150 kDa
[3] = molecular target: chemokine receptor CCR2 on THP-1 cells (human) (UniProt P41597); assay: radioligand saturation binding of 125I MCP-1 to THP-1 cells (CCR2), specific bound cpm, one site binding (hyperbola) fit
[4] = molecular target: T1, recombinant human MCP-1 (monocyte chemoattractant protein 1) (human, UniProt P13500 24-99); assay: cell-based or functional assay
[5] = molecular target: T1, recombinant human MCP-1 (monocyte …); assay: BIAcore, ratio of binding constants, reference eotaxin
Experimental: (§1) Anti-MCP-1 monoclonal antibodies were captured onto a BIAcore CM5 sensor surface (Biacore International, Piscataway, N.J.). A solution containing a mixture of rabbit anti-human Fc specific polyclonal antibodies and rabbit anti-mouse Fc specific polyclonal antibodies was first immobilized onto the sensor surface. After the restabilization of the new baseline, the anti-MCP-1 mAb is passed over the surface.
(§2) Analysis is performed as described above, with the exception only a single concentration is used, typically, a high ligand concentration (100 nM). Chemokines selected for mAb specificity were human forms of MCP-1, MCP-2, Eotaxin-1, Eotaxin-2 (CCL24, MPIF-2, NP_{—}002982) and Eotaxin-3 (CCL26, GenBank Q9Y258). All chemokines were purchased from R&D Systems. Dextran-sulfate (1%) was added to the sample buffer in the final round of assays to reduce non-specific binding, particularly to eotaxin-3.
The data for binding of C775 to each of the ligand described was processed to give a binding constant, where measurable. There was no measurable binding of C775 to any of the other MCP-1 homologs or eotaxin homologs. The calculated binding constant of C775 to MCP-1 by this method was 1.0 nM and for eotaxin >5 uM, respectively, for a ligand concentration 100 nM. Therefore, the binding specificity of C775 for MCP-1 as compared to eotaxin is >5000 fold. […]

[6] = molecular target: T1, recombinant human MCP-1 (monocyte …); assay: BIAcore, C775 captured on anti-Fc surface, MCP-1 in solution, 25 C
From the text: as §1
(§3) Human MCP-1 purchased from R&D Systems (www.rndsystems.com) was reconstituted as proscribed by the vendor. Samples of varying concentrations were prepared using this stock solution. They were then passed over the surface of captured anti-MCP-1 mAb using KINJECT command at a flow rate of […]. Measurements are typically performed at 25° C. Sensor data was analyzed using the BLAevaluation software provided with the instrument.

human MCP-2 = molecular target: T2, human MCP-2 (human, UniProt P80075 24-99); assay: BIAcore, C775 captured on anti-Fc surface, single ligand concentration
T2 sequence (looked up): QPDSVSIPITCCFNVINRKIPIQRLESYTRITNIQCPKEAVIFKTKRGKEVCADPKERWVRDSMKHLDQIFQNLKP
From the text: as §1, §3, §2

[7] = molecular target: T3, human Eotaxin-2 (CCL24, MPIF-2) (human, UniProt O00175 27-104, limits assumed); assay: as above
T3 sequence (looked up): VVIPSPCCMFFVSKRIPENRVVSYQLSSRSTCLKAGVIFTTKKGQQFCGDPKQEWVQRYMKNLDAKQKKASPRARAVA
From the text: as §1, §3, §2

human Eotaxin-3 (CCL26) = molecular target: T4, human Eotaxin-3 (CCL26) (human, UniProt Q9Y258 24-94); assay: as above
T4 sequence (looked up): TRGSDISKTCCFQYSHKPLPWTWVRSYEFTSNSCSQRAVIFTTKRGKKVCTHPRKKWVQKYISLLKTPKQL
From the text: as §1, §3, §2

[8] = molecular target: T5, 125I labeled human MCP-1 (NEX332, Perkin Elmer) (human, UniProt P13500 24-99, 125I label, residue not stated); assay: inhibition of 125I MCP-1 (1 ng/ml) binding to CCR2 on THP-1 cells, filter plate radioligand assay
T5 construct: Bought radio-iodinated MCP-1; also called radiolabeled MCP-1
Experimental: Negative controls (no inhibition) or total binding was measured in 50 ul of assay buffer with no other additions. Nonspecific binding (background) was measured by adding 50 ul of MCP-1 at a final concentration of […]. Test wells received 50 ul of serial dilutions of mAb. Lastly, 50 ul of ¹²⁵I MCP-1 at a final concentration of 1 ng/ml was added to all wells resulting in a total assay volume of […].
To test the efficacy of anti-MCP-1 mabs, a concentration of 1 ng/ml ¹²⁵I MCP-1 was used. Cells were incubated with 1 ng/ml ¹²⁵I MCP-1 with or without serial dilutions of either the commercial Mab (positive control) or 6 different Mabs generated in Example 2. There is a dose-dependent inhibition of ¹²⁵I MCP-1 binding to the CCR2 receptor with the commercial Mab. A dose-dependent inhibition was also observed with five of the six Centocor-generated Mabs allowing the calculation of an IC50 concentration: C727, C728, C752, C753 and, C775.

T1 sequence (P13500 24-99 limits assumed): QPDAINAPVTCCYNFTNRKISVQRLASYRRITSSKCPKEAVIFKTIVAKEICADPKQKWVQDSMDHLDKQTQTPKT
T5 sequence (P13500 24-99 limits assumed): as above

Row | Molecule | Kd [1] [µg/mL] | Kd [2] [nM] | BMAX [3] [cpm] | IC50 (nM), Ca2+ mobilization in THP-1 cells with 300 ng/ml MCP-1 [4] [nM] | IC50 (µg/ml), Ca2+ mobilization in THP-1 cells with 300 ng/ml MCP-1 [4] [µg/mL] | binding specificity for MCP-1 as compared to eotaxin (fold) [5] [fold] | Kd [6] [nM] | binding result (human MCP-2) | binding result [7] | binding result (human Eotaxin-3 (CCL26)) | IC50 [8]
1 | 125I labeled human MCP-1 (NEX332, Perkin Elmer) (from UniProt P13500 24-99) (ligand) | 0.00896 | 1 | 15700 |  |  |  |  |  |  |  | 
2 | murine anti-human MCP-1 monoclonal antibody C775 (antibody, mouse IgG1, V domains shown, also called CNTO4874; CNTO 4874) VH: QVQLKQSGAELVRPGASVKLSCKASGYTFTDYYINWVKQRPGQGLEWIARIYPGTGNTYYNENFKGKATLTAEKSSSTAYMQLSSLTSEDSAVYFCARSGSTVVGNYYGMDYWGQGTSVTVSS VL: SIVMTQTPKFLLVSAGDRVSITCKASQSVSNDVAWYQQKPGQSPKLLIYYASNRYTGVPDRFTGSGYGTDFTFTISTVQAEDLAVYFCQQDYSSPWTFGGGTKLEIKR |  |  |  | 53 | 8.01 | > 5000 | 1 | no binding (tested: 100 nM ligand) | no binding (tested: 100 nM ligand) | no binding (tested: 100 nM ligand) | 7.1 µg/mL and 47 nM
